Experimental data from PMC6456745.

How the values were obtained:
[1] = target: AccS′ (soluble C-terminal autokinase module of the AccS sensor kinase), His6-tagged (Azoarcus sp. CIB); assay: AUC; sedimentation velocity, 20°C, 48,000 rpm, AccS′ 1 mg/ml, in the absence of DTT or with 0.1 mM DTT; dimer to monomers
[2] = target: AccS′ (soluble C-terminal autokinase module of the AccS sensor kinase), His6-tagged (Azoarcus sp. CIB); assay: AUC; sedimentation velocity, 20°C, 48,000 rpm, AccS′ 1 mg/ml, with 0.1 mM DTT and 250 µM ubiquinone Q0; dimer to monomers

## AccS′ (soluble C-terminal autokinase module of the AccS sensor kinase), His6-tagged (domain or fragment)
[1]
  percent of the protein as dimer (in the absence of DTT): 62%
  percent of the protein as dimer (with DTT): 88%
  stoichiometry N: 2
[2]
  percent of the protein as dimer (with DTT and Q0): 37%
  stoichiometry N: 2
